Laboratory results as given in the supplement of paper PMC12764529.
± gives the half width of the 95% confidence interval.

assay: folding stability dG unfold (combined trypsin and chymotrypsin); higher = more stable
How it was run: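 Sequencing followed digestion of designed mini-proteins with trypsin and chymotrypsin, each at 11 concentrations in threefold dilutions together with a no-protease condition. The mini-proteins were under 80 residues, had no cysteine, sat in a PA-tagged cDNA display construct, and were kept only if AlphaFold2 dimer inter-PAE was above 15. From the counts, Bayesian fitting gave K50, and unfolding free energy was derived against a sequence-predicted unfolded-state K50 and a shared folded-state K50, per protease or combined.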

Going from “SAGGSAGGSAGGMRIRLENGEVIKIKNAKTKEELLNALKAIPGLKIEYDEETKELWIYRSAGGSAGGSAGGS [r10_792_TrROS_Hall]” to “SAGMISPEEIAKRLKAGEPVEIYLPDPAEKEALLAELQKLLGLSEEELKEIFAKMKFTEIPATDPRLLASAG [r5_368_JUSTAS]”, the “folding stability dG unfold” value falls from 2.22 ± 0.16 kcal/mol to 1.67 ± 0.046 kcal/mol.

Compared with “MVLKVTIEITVTHPANPGKTEKLTIVVEAPTLEEALAAALEEIRRRLGLPPGAKVTVKVTVELVELPEEDLS [r1_149_TrROS_Hall]”, “SAGGSAGSKPVTINWKITHPDGTPTTIPFSFPTEEQALEEALKAAEALAKEAGYPDFKIEIDEIIPSAGGSA [r15_698_TrMRF]” is lower in “folding stability dG unfold” value: 5.99 ± 0.5 kcal/mol for the first, 0.358 ± 0.091 kcal/mol for the second.

First: SETYKVTVLAEVRIYSRSPDGTWKPIGVFPVEATVEYPAEYREEAERKAVEKVEEEVRKFAESHGVVVEASA [r9_356_TrMRF]
Second: SASISVASPEEAEKIAKELKEKYGAKSVKIEPLPEPLVKVTIEFEVPLENGKTATRKIVLLFSSDGKEESAG [r14_420_TrMRF]
The “folding stability dG unfold” value of the first is lower: 1.91 ± 0.16 kcal/mol for the first, 2.44 ± 0.074 kcal/mol for the second.

Going from “SAGGKEYRNPENGQKIPPGDTEEEREKHAREHAKPVIVPIEIPIVIKFGDVIFPIPITFEIPLTPGGSAGGS [r16_387_TrROS]” to “SAGGMTIELTIVAETEEEAEKAAEELARKLAELYPDLKVKVTVEKVEVKDEETGKTYLVYKVRIEIEPSAGG [r13_545_TrROS_Hall]”, the “folding stability dG unfold” value rises from 0.058 ± 0.32 kcal/mol to 4.95 ± 0.11 kcal/mol.

“SMKVERERRTIERTLPDGRKVKVEIDLFRPEDGKPWALIKITVTDENGVPTEREILAPAELAEKVIEELFSA [r9_189_TrMRF]” and “SAGGSAGGSAGGMKVTTINLPDGTTIEYYPETGSVTIHPSDGSVSTRPDLTLEDVLAALSAGGSAGGSAGGS [r10_569_JUSTAS]” are within error of each other in “folding stability dG unfold” value: 2.08 ± 0.069 kcal/mol for the first, 2.07 ± 0.051 kcal/mol for the second.

“SAGGPKPILILPKNGKTETIPVPESMTLEEIIEIVKKAAEKYGFEKISYDPEKKVVTVYLKGKVIVTGSAGG [r13_572_TrMRF]” and “SAGGSAGGSAKVKIVIKNENGEEFEIEMSEEELKKKLKPGDKVKIKIEKVNGKLKITIEKESAGGSAGGSAG [r3_86_TrROS_Hall]” are within error of each other in “folding stability dG unfold” value: 2.27 ± 0.064 kcal/mol for the first, 2.02 ± 0.28 kcal/mol for the second.

Going from “SAGGSAGGVISEEEIEAKAEEAKAEAIAAGLESKEVTITSPSGKVYKITVDVNSITIEKSPAAGSAGGSAGG [r6_270_JUSTAS]” to “SALKGLKITEIKEVTNEDGSKSLVVRVDGYLLVFDLDTKKLTLVPLPPVTVTVTVYEKKADPNKPEYKKKSA [r9_1065_TrROS_Hall]”, the “folding stability dG unfold” value rises from 0.832 ± 0.16 kcal/mol to 2.77 ± 0.16 kcal/mol.

Going from “SAGGSAGGSMKTKTIEIEIDGKKVRITIDSDGNITIEVPSEEVKEALKKLLPPGVKITKIEPVSAGGSAGGS [r12_9_TrROS_Hall]” to “SAMTKEEAKENGHIYIMVKIEVTWPNGGKREFPIFFPFPSLDEAKEQIRSFFRRMNFKVKIDDISIFPVSAG [r14_854_TrROS]”, the “folding stability dG unfold” value rises from 1.94 ± 0.21 kcal/mol to 3.53 ± 0.049 kcal/mol.

Compared with “SEETLRILIRDPATGELREIEVRAGETVTVTFPDGSTVTLRITVVAAPPPPPKTVTLDPNETVEEGETVLSA [r9_467_TrROS_Hall]”, “MPDISRAEIKALAEKLGLPVPDGTITIKFTYGDKTITVPVDAKKDITLGDIVEAIKKKNPNIKKIEIVAEPS [r1_135_TrMRF]” is lower in “folding stability dG unfold” value: 2.1 ± 0.092 kcal/mol for the first, 0.907 ± 0.077 kcal/mol for the second.

Going from “SASKGSSMITVELTVTVPPSVSIEEVKKQFEEEFPKDAEIKVEATPVTVPANGTPVTTIKVTVTITKKESAG [r14_633_JUSTAS]” to “SWKIKISIERTGDWITVKIWYDNPSELRNAIEMIAEKLGMKVEIDDVSWKRDPNGWYEATITVRIKPGMPSA [r9_102_TrROS]”, the “folding stability dG unfold” value rises from 1.56 ± 0.13 kcal/mol to 3.42 ± 0.16 kcal/mol.

Going from “SAGGGTTITLSFADGTTKTLTLPGLTEVVEEPGRVVVRADVPERRVVVTFEPATGTITVEEFAPEEPVSAGG [r13_392_JUSTAS]” to “SAGGSTVSVVPFPDYLLVVTTDVRRTPVPDTDTVSTELTTTVTVIPLPDVPPPVLPFLDADGNPYYASAGGS [r8_46_TrMRF]”, the “folding stability dG unfold” value falls from 1.86 ± 0.25 kcal/mol to 0.694 ± 0.093 kcal/mol.

Going from “SAMIEIEIEVEEREDGRLIVRVRIRNKETGEEIELELEMSREEVEKLLEELKKLFPNLEIVEVEIRELPSAG [r14_969_TrROS_Hall]” to “SSDIKIEIDIERNDDGYLTFTIEIRHPDPQQLVDAAKEIILELFPPGVNIDVEPHPDGWVKAPIMFPLPKSA [r9_646_TrROS]”, the “folding stability dG unfold” value falls from 3.98 ± 0.45 kcal/mol to 1.35 ± 0.25 kcal/mol.

First: SAGGSAGGSAGMPKVEAVDISYSADPNSKSYTITIKSPDGEPIVLTLNSPSEIENLELVLSAGGSAGGSAGG [r11_711_JUSTAS]
Second: SAGGEVKYEHEGKNPDNGNMYKQEQEVPPVPIPPVIVIPAEDLDEFRELGIPENFKILPGNGWIVITSAGGS [r16_194_TrROS]
The “folding stability dG unfold” value of the first is higher: 1.34 ± 0.13 kcal/mol for the first, 0.425 ± 0.13 kcal/mol for the second.

Compared with “SAGGSAGGSALKPGEPITIIFLFKEPNGRPYIMVIEIEVNPDGGIKIKGMEMITLEDLDKISAGGSAGGSAG [r3_212_TrROS]”, “SAGGSALDPDDLEKVTIEFMFYNPNGNLLYEMTLEIYPDDGVIKMEHKQRRPGEPQKVTMEFPFDPSAGGSA [r15_278_TrROS]” is lower in “folding stability dG unfold” value: 4.43 ± 0.25 kcal/mol for the first, 1.73 ± 0.28 kcal/mol for the second.

“SAGGSAGGSKKVKVTIEYDKETGVVKVTVEDPETGEKYTVTAKFEFDKNGKLVKVEVVSIEKESAGGSAGGS [r12_791_TrROS_Hall]” and “SAGGSAGGRLEPITEEEALELARLLAEYIRRLFPGDPRPHLVVVPILVPTPEDGYRLFLAVIAESAGGSAGG [r6_844_TrMRF]” are within error of each other in “folding stability dG unfold” value: 3.67 ± 0.11 kcal/mol for the first, 3.73 ± 0.067 kcal/mol for the second.

Compared with “SAGSSMSVTIKVTIRSPTRTEEIEITVSPSESLEEAIKKVAEKLPPDYSITITFEGGETVTIPIPKELLSAG [r5_77_JUSTAS]”, “SAGGSAGGSAGMELTVKVPPDTTPEEVKEKIEKELGLKVKSISVSSFPDGTRTVTITIGPSAGGSAGGSAGG [r17_222_JUSTAS]” is higher in “folding stability dG unfold” value: 1.58 ± 0.089 kcal/mol for the first, 2.45 ± 0.21 kcal/mol for the second.
